T1: NT-4 (neurotrophin-4) (Homo sapiens, UniProt P34130 P34130:81-210)
T1 sequence: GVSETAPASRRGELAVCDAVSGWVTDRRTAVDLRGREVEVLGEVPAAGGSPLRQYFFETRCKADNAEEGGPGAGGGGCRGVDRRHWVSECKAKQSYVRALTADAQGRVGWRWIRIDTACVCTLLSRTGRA

B1: SEQ ID NO: 82(64) (ssRNA)
RNA: GGGUCCUGGAUAAGAGUUUCCGUCUCGUAUCCUGUUACCC
modifications: 2'-F C5,U7,U17,U18,U19,C20,C24,U25,U33,U36; 2'-OH G8,G34; 2'-H A; 2'-OMe all other; 5' PEG40TS2; 3' idT
B2: SEQ ID NO: 82(1) (ssRNA)
RNA: GGGUCCUGGAUAAGAGUUUCCGUCUCGUAUCCUGUUACCC
modifications: 2'-F all C and U; 2'-OMe G1-3,G9,G14,G16,G22,G27; 2'-OH G8,G34; 2'-H A; idT 5' and 3'
B3: SEQ ID NO: 82(56) (ssRNA)
RNA: GGGUCCUGGAUAAGAGUUUCCGUCUCGUAUCCUGUUACCC
modifications: 2'-F all C and U; 2'-OMe G1-3,G9,G14,G16,G22,G27; 2'-OH G8,G34; 2'-H A; 5' PEG40GS2; 3' idT
B4: SEQ ID NO: 160 (ssRNA)
RNA: GGGUCCUGGAUAAGAGTUUCCGUCUCGUAUCCUGUUACCC
modifications: 2'-F C5,U7,U18,U19,C20,C24,U25,U33,U36; dT17; 2'-OH G8,G34; 2'-H A; 2'-OMe all other; idT 5' and 3'
B5: SEQ ID NO: 161 (ssRNA)
RNA: GGGUCCUGGAUAAGAGUUUCCGUCUCGUAUCCTGUUACCC
modifications: 2'-F C5,U7,U17,U18,U19,C20,C24,U25,U36; dT33; 2'-OH G8,G34; 2'-H A; 2'-OMe all other; idT 5' and 3'

target: T2, NGF (nerve growth factor) (Homo sapiens, UniProt P01138 P01138:122-241); assay: cell_activity; neurite; TF-1 >0.1; details: tags: R&D Systems; chain copies: 2
T2 sequence (P01138 122-241, one chain of several): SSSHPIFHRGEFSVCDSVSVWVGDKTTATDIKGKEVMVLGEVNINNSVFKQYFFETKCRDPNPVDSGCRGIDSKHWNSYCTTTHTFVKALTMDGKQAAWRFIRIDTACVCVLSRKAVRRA

Binder	IC50 [pM]
GGGUCCUGGAUAAGAGUUUCCGUCUCGUAUCCUGUUACCC (ssRNA, as 82(1) except 2'-OMe U4,C6,U11,C20,C21,C26,U28,U30,C31,C32,U35,C38-40) [SEQ ID NO: 82(19)]	291
GGGUCCUGGAUAAGAGUUUCCGUCUCGUAUCCUGUUACCC (ssRNA, as 82(1) except dC24) [SEQ ID NO: 82(31)]	276
GGGUCCUGGAUAAGAGUUUCCGUCUCGUAUCCUGUUACCC (ssRNA, as 82(25) except dU19) [SEQ ID NO: 82(39)]	256
GGGUCCUGGAUAAGAGTUUCCGUCUCGUAUCCTGUUACCC (ssRNA, as 82(48) except dU7,dT17,dT33,dU36) [SEQ ID NO: 168]	261
GGGUCCUGGAUAAGAGUUUCCGUCUCGUAUCCUGUUACCC (ssRNA, as 82(1) except 2'-OMe U33) [SEQ ID NO: 82(14)]	294
GGGUCCUGGAUAAGAGUUUCCGUCUCGUAUCCUGUTACCC (ssRNA, as 82(1) except dT36) [SEQ ID NO: 159]	264
GGGUCCUGGAUAAGAGUUUCCGUCUCGUAUCCUGUUACCC (ssRNA, as 82(1) except dC20) [SEQ ID NO: 82(30)]	244
GGGUCCUGGAUAAGAGUUUCCGUCUCGUAUCCUGUUACCC (ssRNA, as 82(25) except 2'-OMe A12) [SEQ ID NO: 82(44)]	97
GGGUCCUGGAUAAGAGUUUCCGUCUCGUAUCCUGUUACCC (ssRNA, as 82(25) except dU18) [SEQ ID NO: 82(38)]	295
GGGUCCUGGAUAAGAGUTUCCGUCUCGUAUCCUGUUACCC (ssRNA, as 82(1) except dT18) [SEQ ID NO: 157]	299
GGGUCCUGGAUAAGAGUUUCCGUCUCGUAUCCUGUUACCC (ssRNA, as 82(25) except 2'-OMe A13) [SEQ ID NO: 82(43)]	88

target: T2, NGF (nerve growth factor); assay: cell_activity; neurite outgrowth inhibition; details: tags: R&D Systems; chain copies: 2
Protocol: The cells (2500 cells per well) were cultured for one day in an RPMI-1640 medium containing 2.5% horse serum and 1.25% fetal bovine serum in a 96 well flat-bottom plate coated with collagen type IV. […] Two days later, the cytoplasm and nuclei were stained using Cellomics Neurite Outgrowth Kit (manufactured by Thermo Scientific), and neurite length per cell was measured by Cellomics ArrayScan VTI (manufactured by Thermo Scientific). With the neurite length per cell obtained by the addition of NGF alone as inhibitory activity 0%, and that of the cell obtained by NGF free culture for 2 days as inhibitory activity 100%, the inhibitory activity of the aptamer was calculated from the neurite length per cell obtained by culturing with the addition of NGF and the aptamer in mixture.

Binder	IC50 [pM]
B1	107
B2	700
B3	67
B4	38
B5	36
GGGUCCUGUCGCUAAGUUUCCGUCUUUGCGGCUGUUACCC (ssRNA, 2'-F C and U; 2'-OH G; 2'-H (deoxy) A) [SEQ ID NO: 84]	793

target: T2, NGF (nerve growth factor); assay: cell_activity; neurite; TF-1 <0.1; details: tags: R&D Systems; chain copies: 2

Binder	IC50 [pM]
GGGUCCUGUGGAAGAGUUUCCGUCUCGUCCACUGUUACCC (ssRNA, 2'-OMe G1-3,C38-40; other C/U 2'-F, G 2'-OH, dA; 5',3' idT) [SEQ ID NO: 89(1)]	246
GGGUCCUGUGGAAGAGUUUCCGUCUCGUCCACUGUUACCC (ssRNA, as 89(2) plus 2'-OMe U9,G10,G11,C29,C30) [SEQ ID NO: 89(4)]	< 100
GGGUCCUGUGGAAGAGUUUCCGUCUCGUCCACUGUUACCC (ssRNA, as 89(2) plus 2'-OMe G10,G11) [SEQ ID NO: 89(3)]	122

target: T1, NT-4 (neurotrophin-4); assay: cell_activity; TF-1; details: tags: R&D Systems; chain copies: 2
Text: Using TF-1 cells, whether NGF aptamer inhibits BDNF, NT-3, NT-4 was examined. Human receptor genes (TrkB, TrkC, p75) for respective neurotrophic factors were introduced into TF-1 cells (ATCC Number: CRL-2003), which is a human erythroleukemic cell line, by using a retrovirus vector to give cells that highly express these receptors stably. TF-1 cells introduced with TrkB and p75 were used for the evaluation of inhibitory activity against BDNF, TF-1 cells introduced with TrkC and p75 were used for the evaluation against NT-3, and TF-1 cells introduced with TrkB alone were used for the evaluation against NT-4. These cells were suspended in an RPMI-1640 medium containing 20% fetal bovine serum, and seeded in a white 96 well flat-bottom plate at 1000 cells (50 μL) per well. Thereto was added a mixed solution 50 μL of human BDNF (final concentration 0.074 nM) or NT-3 (final concentration 0.074 nM) or NT-4 (final concentration 0.071 nM) and the aptamer (final concentration 1 μM-0.01 nM), which had been pre-reacted at room temperature for 30 min in a serum-free RPMI-1640 medium, 3 days later, 100 μL of CellTiter-Glo reagent for CellTiter-Glo Luminescent Cell Viability Assay (manufactured by Promega) was added to each well, chemiluminescence was measured by a microplate reader. With the amount of luminescence per well obtained by the addition of BDNF or NT-3 or NT-4 alone and culture of the cells for 3 days as inhibitory activity 0%, and that of the well obtained by culture for 3 days without addition of BDNF or NT-3 or NT-4 as inhibitory activity 100%, the inhibitory activity of the aptamer was calculated from the amount of luminescence per well obtained by culturing with the addition of BDNF or NT-3 or NT-4 and the aptamer in mixture. When the inhibitory activity was 0 or below, ‘0%’ is indicated. The 50% inhibitory concentration (IC₅₀) was determined from the concentrations at two, above and below points sandwiching the 50% inhibitory activity. An IC₅₀ value indicated as “>X” means that the inhibitory activity was not more than 50% when the indicated concentration X was the maximum measured concentration. N.D. means not measured.

Binder	IC50 [pM]
GGGUCCUGUGGAAGAGUUUCCGUCUCGUCCACUGUUACCC (ssRNA, as 89(2) plus 2'-OMe U9,G10,G11,C29,C30) [SEQ ID NO: 89(4)]	271000
